Experimental data published in a protein production outcome set (Wang et al. 2014).

Test: label from the status in PepcDB records

Sequence	protein production
MHCDDVMLPAALHRESCPAPEGVVTVADTTRNASGHARPRISIIIPAWNIAPWIGQTLRSILSQTVDDFECIVIDDGSTDGTAQVVASVADPRIRCIRQPNAGVSAARNRGIAEAQGAFITFLDGDDYWLPCFLETLLPPLLTRPEVDLVYCGMTMFMDDDGTVKPQPWGNVHATGNVWWDMLSDSVMLMGAWLARAEVVKGCRPFDPTLRVGEDRDFLLSMLEDIYHQRHHEAVGIDARLLRYRQRRGSGVRQVADALQCEWHMMDRHLRHEGIPPAVRRRAYSDLAFKMGVIAAFGARDIALALRWYGKAFALCPMNGNLYWLPLRKMFLSLRPRRRLHMKVLFLSARADFGGGPEHVLQLLRRLPPDVEAAVACPEDVPYWERFRNIVGDDNMFSMPHRAFTLEAVARLRRFCRKRGFDVLHAHGKGAGLYARVLSLLCGIPSVYTFHGVHLGGYGPLKRWLYGAYERAASWCTRRGIAVSRGERDAIEAHGLMPASKVSVIMNGVEMPEGTAPRPAGPPWLVVSFSRFDMQKNSLFLLDVARALQEQGRLDGFRFLLVGDGPDRARLLEQAAAQGLGDRVSCPGATPTPHEAYAGALCYFSSSRWEGMPLAVLEAMAHGLPVVATDVVGNRDAVADGVTGLLYPEGDAGAAARGLVRLADEAALWAAMAHEARAWVATRHDVQRMADRTFHELRKACGRA	failed
MSLEKLDTNTFEQLIYDEGKACLVMFSRKNCHVCQKVTPVLEELRLNYEESFGFYYVDVEEEKTLFQRFSLKGVPQILYFKDGEYKGKMAGDVEDDEVEQMIADVLED	not failed
LPVILWFLAHGLDVVFIDYPRDPATGVQYYCDSIAAAKSLLDAVLASRQLGLSPEAPLGLWGFSQGGGATGWAAQLQDYAPDVRPKAAVVGAPPVDLFRVLDTVDGGLLTGVIAYAIAGLAVNSSEMFEEIMSVLNERGVSDVLKNITSCAGGSLLASGYSSSRGWTHQGTPLADILDDLPLVVAEFGKQKLGRVAPEIPVLLWGSKNDDVIPIDPIRELRDSWADKGTPLTWHESQAPRVPGRTGLNHFGPYFRNLEKYSGWLIDHL	failed
RMSHHYATIEVSQQLRQLLGDQLVILLRETPDGQALERSQNDFRRVLEQGRANTVDSAEQAALDGVRDAYLQLQAHTPALLEAPMADNDGFSEAFNGLRLRLQDLQQLALAGISEAE	not failed
MLMMLKSLRVNRILKLLLLAIFSSFMIIACGDRLTQYTVSQKISPSTECQVIQHQVGETQVCGQPQKIVALGPNVLEILLALDVQPVGFADHVPLHQGNYDNPSQQIPYLGERVTGELINLGLAYTPSIEALLKIKPDLIIGNELNRSQYEMLSKIAPTLLFPRFDAQPNLLAISKILGRSEKAKKILADSDQRLAIAQKALSDIVANHPQVLMLVSLGQSISEQLRFPRRDSFCDSLVTNLGFKLMSPSSLVPADKSVPPPLSIETLPQFNSADSIILLGANFSQVQLSDDKYFEPQMQKLKQQWSENAIAQSLTASKEGRVYFIPAYLCLGLPGPIGTELYLQELQKQLLSPQGK	failed
MEYYNLILYLLVFGADMLIILQTYNEIKMWKTVKGNFVGKVSIIVPIKGIDTRLERNIESLLSQDYPYPYEVIYVVEKGDEVENILKKYNVKIVYSDFNCDSCSGKIRAQISGLLRASNDIIVFADSDTWYPRYWLRNLISPLDKYDTTTTFSWPFPSRITLSNLIRAGFWTLGFESQSLQSSRFLWGGSMALRREFFDNEVLDELSKEWCDDCTLTRIIKRRGGKIGFVMSAIPLNVYDENSLISWSSRQIITILAYSPRGARAYLVAGTFFALILIYSLVYLNIVTFTPYILWIVKNVIRGVKYPKQALIASLMTILAIPYALFLLVFNWNRREVYWRGKRYIVKPLREK	failed
MNITVNDRECSAQVGDRLLDIARANHSHIGYFCGGNAICQTCYVRVLEGAELLSPMSDAEKAMLSDKLIKEGTRMACQTLIEKPGKITVLSEVEAAKRLTLENPLQLPAYMGKMGWEAAVKFTDTIAFQARREQGEHALEPTQLLHDVAAAISDAIQLVFNAVQAAFGVNRSTDKPEIKADKGCGCDTTLLAKTATCDNGHGRIVSPEVLQLHQERSAVCN	failed
MKKFLSFISFATIVSLVLSVFAKPYTEILRFKTTQQIAPRTYYEKYELLTDEGFVDINCIKLDLIDGGFDFDVLKSKVANTGDFVYNMVSSQIDKNPIAAINANFFYTNTKTDYNKIWPIGISVSGGKILSSPNNKQNTFPAFVYTTSNEILFDYINGLLYKLVNLDSGYEFKIAHVNKFTGDLTYPILFTGDYVQKTIGNKYKGIVELIIKDGIIKDIREEKQTVALDKNEYLLVATGNYAKNLKANFKVGDKVSLKIDLSIPLEKIKAAASGNTFLLKDGKIPSFTHEIAGRHPRSAIGIDKTGRYLYLVAVDGRNGKSIGLSQGELASFLQSIDVWTAINLDGGYSTQLIAKDNDGKFKAFYNIGETRKVFDSIAAFYKYRDDKIATFYIDCPDRVFAGEEYPIKVYAKDRFYNTITYDAVYLKVYQDAYEIDIKDGTFIPYKDGVVTISCVYEDVYQKAFAQKKISVYKPEILTTNKKQLYLLPGESARLRFYIKDKLGHFKEIDPRKVQAEKNPAFEFKDGSFIAKSNFRGFVTFSYKDLKCSIPVGIGETLQLLRSFDYLALSWPKGVSMFLSSKNKTQGKYSNKVYFSVSSTKGKSFKLNFKTPVDLTNINKISFDLCAKNVKVYLGFKMPNGTQKEVEIPQSKSDNFKSYSLNVESYKTLDYILLIPQKTQGYIWIDNLKGNVVNLPPVEAINQYVAKFDSKLAKSSVILLTKSFESLPSDTKKKVESNLGSYLKCYNLEKGNPPYEKNEKFNIVFLRTKSGSILDFSFYQWIRIKNLSAEKKPLIVVLDIPFESLKQNEKDILIRLLKSRKAPSMIICTTSDYTRVERYDTLYIGYASSNDLLAKSSTKSVNLACDVEKGYIYLARGY	failed
MRFVNPIPFVRDINRSKSFYRDRLGLKILEDFGSFVLFETGFAIHEGRSLEETIWRTSSDAQEAYGRRNMLLYFEHADVDAAFQDIAPHVELIHPLERQAWGQRVFRFYDPDGHAIEVGESLSQSGE	not failed
FHWVNDGYADFDGFLAALSSRKRKAIRKERAQAQGFGGQIRELTGGDLRPEHWDAFWRFYQDTGARKWGSPYLTRAFFDIAHQTMADDMVLVLAERDGIPVAGALNFIGREALFGRYWGCVEHHPCLHFELCYYRAIDWAIAHGLARVEAGAQGEHKLARG	not failed
MVTQKQRRLWAFLAALACVMWGISGLFAKSLFNISSDITPMWLSQIRMVTSGIILLIVAGILKQKPIATMKNKHDAWVIIAYGIFGLLPVQLFYFIVVQQANASIATILQFVGPFFVMGYLAFTHKQVMRRIDVIAAIFAFIGVVLLATHGRFNHLAITPSVLFWGLLSAVGVATNTLIPIGVLKRVSSLVVTGWGLLSAGICLMIVHPQMPHIPNTPHVWLDVLAVIVIGTLIPFQLMTNSLRFIKASTASLLDAFEPFSATLGSVLCFGLVMTPMDWIGSILVVLAAMALNISPKKKKGKLDGKSQD	failed
MDEQVIFTTNTSGTIASVHSFEQINLRQCSTQSRNSCVQVGNKYLFIAQAQKALINVYNLSGSFKRESVEQRLPLPEILKCLEVVENDGVQYDRIQGVNHNLPDFNLPYLLLGSTESGKLYIWELNSGILLNVKPMAHYQSITKIKSILNGKYIITSGNDSRVIIWQTVDLVSASNDDPKPLCILHDHTLPVTDFQVSSSQGKFLSCTDTKLFTVSQDATIRCYDLSLIGSKKKQKANENDVSIGKTPVLLATFTTPYSIKSIVLDPADRACYIGTAEGCFSLNLFYKLKGNAIVNLLQSAGVNTVQKGRVFSLVQRNSLTGGENEDLDALYAMGQLVCENVLNSNVSCLEISMDGTLLLIGDTEGKVSIAEIYSKQIIRTIQTLTTSQDSVGEVTNLLTNPYRLERGNLLFEGESKGKQPSNNNGHNFMKIPNLQRVIFDGKNKGHLHDIWYQIGEPEAETDPNLALPLNDFNAYLEQVKTQESIFSHIGKVSSNVKVIDNKIDATSSLDSNAAKDEEITELKTNIEALTHAYKELRDMHEKLYEEHQQMLDKQ	failed
GQGVSRSGALDLGALRSANRTVGNPSDMACVESVLGGLSFSCHGSAVIAITGAHTPVTITSASGLQWQASNYQPIELETGDRVSLGSPKAGLRSYLAIRGGFDVTPVLGSLSTDTLAQLGPEALATGDRLGFTAPVNGTSVSLNEAPAFELPTTANIVTLDVVMGPRTDWFTENAIQRLSSQLWRVTPQSNRVGIRLAGDTPLERSNHQELPSEGTSVGAIQVPASGQPVLFLADHPLTGGYPVIASVASHHLDLAGQIPVNAQIRFNPLGAFEEMQPSTEASFSTADAKNNS	failed
MINLELFKEFLLNLIKDYGYFGIFLVGFSEPIFQPFPTEIFIIAGILLGLDWKLVWLISTIACNFGAVVTYYLAKKYGEKLMLKLFDEEKIKKGSHYLKKWGILGVIIASFTPIPFEVICWVCGSFEMPFERYMIAVFLSRLIRHGMVILPFVLKDHIHF	failed
MFGMTLVNIFVPKLNLYHFVVGVIYLFPMIVIGFKIVKNRNITGLPLFICSGIVGVWAILLHMKMNLGHDYEFFSGPIQETVMLILLLVAVPLSYYVFACSVGCKDTRNMKALKIFPVVAFFIIVITEILGISYYGMANYVLLFSFLLLIGPLLGGLYIWEIMSNIQFKNYTT	failed
MALARWGAALQRRWQAIDPAERAGFVAGARFYVGSLPPVFAWGLVTGVAMSKSVLTIPQAIGMTLLVYAGSSQLAVLPLMAAGLPVWTVLLTAFIVNVRFIIFSAGLMQHFSHLPFGRRVLIGFFNGDLPFVLFSQRYPGPGPERGKEGYLWGMALANWTIWQVSSLLGIVGASLFPDAWGLALAGTLALIPVMVSTIRSRATLMAVAVAAVLALVAFKLPYRLSLVIAVVGAMAAGLAGDEATARLQWQRRGAQPAPSEPKEGP	failed
MKKVRFLLLAAMVAMFTGCQKEVAEQELDNNKPTPTGDTRIIIEGEGMIGPVTRSSDGKVEFEGGYATGAGLYNGDAQPKVAAHPDAGYEVNYFYGGPENELHRYDYAQSGSSTFDVKLKGEDHTFRCGFKEKKRNLTVNTGTGGSVSPAGTNSYRVEKAISITATPDSGYEFAGWTITEGDVTIENPGSPATTATLHNDNSTITANFKSGAELVFTVRASANKIVPMPVLGSGPYIIDYGDGTVAQEVDLRAPGYTQYPGSYHTYSADGEYTVTIKGPAATAFSFRGTRNSDLQYTNPCPAKSILKNTIDISCVTSLENAFSGMKSLESIKCDLFESCKGRVTTCANIFDQCTNLHTIYNGLFEGFDKCTDFSLAFHYTALNSIPANTFRGCSSAVKFNSTFSAIPNILSIPAGLFDDCVNAQEFASTFELLNISTVPERLFAKCVKATFFRGTFRQSHVTTVPGNVFENCRAIENVSSCFENCSWITSLPEMWNTSLYPKIKTYNAFAKNCNKASNYSAVPAAWK	failed
MKHTIGILGGMGPAATADMLEKFVELRHASCDQQHIPLIVSSIPDIPDRTACLLSGGPSPYRYLERYLHMLEDAGAECIVIPCNTAHYWFDDLQNVAKARMISILDATLGDIPPSARHVGLLATNATLATGLYQKKALARGLTLIQPEDAGQALVMQAIYTLKRGDKTAAQALLLPQIDSLIARGAQAIIMGCTEIPLIVAGHERAIACPMIDSTASLVRAAIRWYESWPDTRASLTGEQRLTA	not failed
MAVLNLFHIFATTVDSTAVEKNLLIMKFYNREKEIAELKRVQELAFGQNSRMIVVTGRRRIGKTSLIKQALKGTPTVYFFIGRKAESILVADFIKIVRETLSIFIPDGISNFTTLIQYLFEIGKTRSFNIVIDEFQEFYNIRPDVFSDMQNLWDEYRQETKINLVISGSVYSLMQKIFTDHGEPLFGRADNILCLRPFNTKVLKQIMEDFAPGYSNDDLLALYTLTGGIPKYVELFCDNQALSVDRIYDFVFSENSLFIDEGRNLLITEFGKNYGIYFSILLEIANGHYTQGEIESALGGISIGGHLSKLENVYNLITRERPIFAKPGTKKNVRYIIGDNFLNFWFKYIERNRSYIELQNFEDLRQLAKADYQTYSGRVLEKYFKQKLAEEGGFKEIGSWWETKSSANKERLNSFEIDIVALKSSGKKALIAEVKRMPENNYVHSTFMEKVEHLKHKEMAKYDIETRVLGLEDM	failed
